Consider one molecule from US20080131419A1.

Series [1] addresses actin filaments (F-actin) of lily pollen tubes (lily (Lilium grandiflorum / Lilium longiflorum cv. Osnat)). The series is described as follows: cell-based or functional assay.
Series [2] concerns the target actin filaments (F-actin) of lily pollen tubes.

B1: Aspergillus niger B1 extracellular RNase (RNase B1) (protein)
chain: TIDTCSSDSPLSCQTDNEASCCFNSPGGSLLQTQFWDYDPSDGPSGSWTIHGLWPDNCDGTYQEYCDESREYSNITSILEAQNRTELLSYMKEYWPDYEGADEDESFWEHEWNKHGTCINTIEPSCYTDYYAQEEVGDFFQQVVDLFKTLDSYTALSDAGITPSEDATYKLSDIEDALAAIHDGYPPYVGCEDGALSQLYYYFNVKGSAIGGTYVASERLEDSNCKDSGIKYPPKYSSSKKIYGSSL
B1 had an inhibition of lily pollen tube elongation, 1 uM enzymatically heat-inactivated RNase B1 (EI-RNase B1) in series [1] of 55%. For the same molecule, in series [2], the “actin filament distribution in pollen tubes (TRITC-phalloidin staining)” value is “in RNase-treated pollen tubes masses of F-actin were accumulated at the tip cell wall”; the “lily pollen tube length in vitro, RNase B1 100 units/ml (16 ug/ml), 2 h (control about 300 um)” value was “reached only 160 µm in length”; the “lily pollen tube length in vitro, autoclaved RNase B1 (control about 300 um)” value was “Boiling or autoclaving the RNase yielded pollen tubes of 130 and 170 µm in length, respectively”; the “lily pollen tube length in vitro, boiled RNase B1 (control about 300 um)” value was “Boiling or autoclaving the RNase yielded pollen tubes of 130 and 170 µm in length, respectively”.
